In the supplement of paper PMC10724198:
± gives the standard deviation of the averaged measurements.

Experiments:
Saccharomyces cerevisiae [1] = experiment: protein stability index of tFT-peptide fusion (C-terminal peptide) (PSI (0-1 scale)); higher = more stable (slower turnover)
Protocol: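 MPS profiling in S. cerevisiae of the tFT-X12 degron library: putative degron peptides plus stable controls, 12 aa, fused to the C-terminus of a sfGFP-mCherry timer. Cells are FACS-sorted into 8 mCherry/sfGFP bins and deep-sequenced. PSI runs from 0 (unstable) to 1 (stable). Backgrounds are wild type, das1Δ and doa10Δ at 30 °C, and wild type, das1Δ, cdc34-1 and cdc53-1 at 37 °C; 2-3 technical replicates each.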

Saccharomyces cerevisiae [2] = experiment: as above; conditions: genetic background: wild type; temperature: 30 C
[3] = genetic background: cdc34-1, temperature: 37 C
[4] = genetic background: cdc53-1, temperature: 37 C
[5] = genetic background: das1 deletion, temperature: 30 C
[6] = genetic background: das1 deletion, temperature: 37 C
[7] = genetic background: doa10 deletion, temperature: 30 C
[8] = genetic background: wild type, temperature: 30 C
[9] = genetic background: wild type, temperature: 37 C
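Also: PSI is a weighted mean of sequencing reads over stability bins, variants kept only with over 10 reads, mCherry proximal and sfGFP distal, peptide attached via GGGS linker.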

Sequence | protein stability index (Saccharomyces cerevisiae [1]; [3]) | protein stability index (Saccharomyces cerevisiae [1]; [4]) | protein stability index (Saccharomyces cerevisiae [1]; [5]) | protein stability index (Saccharomyces cerevisiae [1]; [6]) | protein stability index (Saccharomyces cerevisiae [1]; [7]) | protein stability index (Saccharomyces cerevisiae [1]; [8]) | protein stability index (Saccharomyces cerevisiae [1]; [9]) | protein stability index (Saccharomyces cerevisiae [2])
SLLSELILVGVS | 0.394 ± 0.0081 | 0.409 ± 0.0044 | 0.284 ± 0.035 | 0.465 ± 0.0089 | 0.229 ± 0.011 | 0.304 ± 0.018 | 0.4308 ± 0.0017 | 0.406 ± 0.021
SLLWLYSAFVWY | 0.302 ± 0.012 | 0.409 ± 0.011 | 0.347 ± 0.032 | 0.503 ± 0.016 | 0.188 ± 0.027 | 0.186 ± 0.023 | 0.386 ± 0.069 | 0.324 ± 0.05
SLRCILISTRVK | 0.541 ± 0.02 | 0.601 ± 0.054 | 0.331 ± 0.046 | 0.563 ± 0.0091 | 0.317 ± 0.043 | 0.348 ± 0.021 | 0.531 ± 0.018 | 0.437 ± 0.087
SLVFCYSLFVFI | 0.342 ± 0.08 | 0.464 ± 0.0058 | 0.381 ± 0.039 | 0.472 ± 0.012 | 0.368 ± 0.044 | 0.347 ± 0.04 | 0.444 ± 0.028 | 0.402 ± 0.017
SLYSFRCFFVLF | 0.35 ± 0.027 | 0.461 ± 0.022 | 0.408 ± 0.022 | 0.51 ± 0.019 | 0.182 ± 0.0065 | 0.17 ± 0.012 | 0.235 ± 0.0058 | 0.263 ± 0.032
SPKFMCSLSCWW | 0.714 ± 0.026 | 0.77647 ± 0.00063 | 0.685 ± 0.071 | 0.7527 ± 0.006 | 0.6577 ± 0.0042 | 0.665 ± 0.014 | 0.744 ± 0.021 | 0.732 ± 0.011
SPLLLIIFRSLC | 0.505 ± 0.096 | 0.558 ± 0.0093 | 0.436 ± 0.039 | 0.623 ± 0.025 | 0.107 ± 0.0011 | 0.119 ± 0.0077 | 0.183 ± 0.019 | 0.18 ± 0.038
SREPPTSTSSRH | 0.6388 ± 0.0031 | 0.709 ± 0.032 | 0.685 ± 0.012 | 0.669 ± 0.016 | 0.696 ± 0.025 | 0.703 ± 0.011 | 0.679 ± 0.0072 | 0.519 ± 0.13
SRFPARCLLCCW | 0.531 ± 0.029 | 0.52 ± 0.021 | 0.454 ± 0.036 | 0.583 ± 0.017 | 0.4309 ± 0.002 | 0.449 ± 0.018 | 0.546 ± 0.007 | 0.501 ± 0.031
SRMIPSAFLLVI | 0.589 ± 0.016 | 0.64 ± 0.012 | 0.507 ± 0.016 | 0.627 ± 0.012 | 0.348 ± 0.012 | 0.371 ± 0.02 | 0.513 ± 0.011 | 0.442 ± 0.01
SSAQKVMELQIV | 0.664 ± 0.011 | 0.7179 ± 0.0062 | 0.648 ± 0.018 | 0.7361 ± 0.0023 | 0.223 ± 0.0048 | 0.257 ± 0.042 | 0.467 ± 0.035 | 0.404 ± 0.011
SSLGILHWRLHS | 0.587 ± 0.038 | 0.709 ± 0.019 | 0.646 ± 0.011 | 0.7347 ± 0.0067 | 0.122 ± 0.022 | 0.14 ± 0.017 | 0.259 ± 0.027 | 0.224 ± 0.0078
SVAWFIYVARSI | 0.529 ± 0.023 | 0.543 ± 0.072 | 0.482 ± 0.017 | 0.611 ± 0.011 | 0.282 ± 0.0042 | 0.329 ± 0.011 | 0.5224 ± 0.0022 | 0.471 ± 0.038
SVCCSLLAVASP | 0.311 ± 0.035 | 0.355 ± 0.016 | 0.364 ± 0.022 | 0.323 ± 0.016 | 0.392 ± 0.029 | 0.384 ± 0.027 | 0.29 ± 0.0066 | 0.3666 ± 0.0026
SVFFALFLRCTP | 0.26 ± 0.058 | 0.229 ± 0.055 | 0.34 ± 0.031 | 0.442 ± 0.005 | 0.43 ± 0.026 | 0.323 ± 0.024 | 0.405 ± 0.02 | 0.359 ± 0.05
